# Results as given in patent publication US20240279356A1 (Xencor, published 2024).
# Legend:
# [1] = molecular target: T1, human MSLN antigen (human, UniProt Q13421 296-580, limits assumed); experiment: Octet BLI on human MSLN antigen (Example 2B(a)); KD quoted in the FIG. 35 legend
# T1 construct: Soluble antigen for BLI; also called Mesothelin; MESO
# In short: (§1)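 Anti-MSLN×anti-CD3 bispecifics carrying MESO-C VH/VL variant Fvs were captured on anti-human Fc biosensors and dipped into human MSLN antigen, followed by buffer dissociation. Initial library screen used one antigen concentration; selected and combination variants were run at multiple concentrations, giving KD, ka and kd.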
# [2] = molecular target: T2, cyno MSLN (Macaca fascicularis (cynomolgus)); experiment: Octet BLI; bsAb on anti-human Fc sensor, cyno MSLN as analyte, one concentration
# T2 construct: soluble antigen for Octet; also called cynomolgus MSLN
# [3] = molecular target: T1, human MSLN antigen; experiment: Octet BLI; bsAb on anti-human Fc sensor, human MSLN as analyte, one concentration
# In short: as §1
# [4] = molecular target: T2, cyno MSLN; experiment: Octet BLI, several concentrations; lower table, column head only 'cyno MSLN (M)'
# [5] = molecular target: T1, human MSLN antigen; experiment: MSLN binding affinity (Octet BLI, Example 2B(a)); quoted in the RTCC example
# T1 sequence (Q13421 other isoform, or with tags, fused parts or gaps limits assumed): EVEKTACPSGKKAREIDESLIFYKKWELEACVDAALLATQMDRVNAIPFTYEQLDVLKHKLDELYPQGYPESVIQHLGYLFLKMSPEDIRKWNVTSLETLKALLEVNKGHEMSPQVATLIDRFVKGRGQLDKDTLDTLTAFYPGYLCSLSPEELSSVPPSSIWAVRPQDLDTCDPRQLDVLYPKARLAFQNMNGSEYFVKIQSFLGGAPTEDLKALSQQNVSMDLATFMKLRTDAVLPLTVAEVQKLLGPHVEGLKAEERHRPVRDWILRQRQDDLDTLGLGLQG
Binder,Kd [1] [nM],Kd [2] [nM],Response [2],koff [2] [s⁻¹],kon [2] [M⁻¹ s⁻¹],Kd [3] [nM],Response [3],koff [3] [s⁻¹],kon [3] [M⁻¹ s⁻¹],Kd [4] [nM],Kd [5] [nM]
"XENP32552 (bispecific antibody, 1+1 Fab-scFv-Fc) heavy: QVQLVQSGAEVKKPGASVKVSCKASGYTFTSYWMHWVRQAPGQGLEWMGWIHPNSDNTIYYEKFQGRVTMTVDKSISTAYMELSRLRSDDTAVYYCAIIITPVVPKFDYWGQGTLVTVSSASTKGPSVFPLAPSSKSTSGGTAALGCLVKDYFPEPVTVSWNSGALTSGVHTFPAVLQSSGLYSLSSVVTVPSSSLGTQTYICNVNHKPSDTKVDKKVEPKSCDKTHTCPPCPAPPVAGPSVFLFPPKPKDTLMISRTPEVTCVVVDVKHEDPEVKFNWYVDGVEVHNAKTKPREEEYNSTYRVVSVLTVLHQDWLNGKEYKCKVSNKALPAPIEKTISKAKGQPREPQVYTLPPSREEMTKNQVSLTCDVSGFYPSDIAVEWESDGQPENNYKTTPPVLDSDGSFFLYSKLTVDKSRWEQGDVFSCSVMHEALHNHYTQKSLSLSPGK scFv-Fc: not shown light: DIVMTQSPDSLAVSLGERATINCKASHDVGTSVAWYQQKPGQSPKLLIYWASTRHTGVPDRFTGSGSGTDFTLTISSLQAEDVAVYFCQQYSSYPLTFGAGTKLEIKRTVAAPSVFIFPPSDEQLKSGTASVVCLLNNFYPREAKVQWKVDNALQSGNSQESVTEQDSKDSTYSLSSTLTLSKADYEKHKVYACEVTHQGLSSPVTKSFNRGEC",9.2,32.1,0.827,0.0148,459000,30,0.915,0.0147,491000,10,
"XENP33366 (bispecific antibody, 2+1 Fab2-scFv-Fc) heavy: QVQLVQSGAEVKKPGASVKVSCKASGYTFTSYWMHWVRQAPGQGLEWMGWIHPNSDNTIYYEKFQGRVTMTVDKSISTAYMELSRLRSDDTAVYYCAIIITPVVPKFDYWGQGTLVTVSSASTKGPSVFPLAPSSKSTSGGTAALGCLVKDYFPEPVTVSWNSGALTSGVHTFPAVLQSSGLYSLSSVVTVPSSSLGTQTYICNVNHKPSDTKVDKKVEPKSCDKTHTCPPCPAPPVAGPSVFLFPPKPKDTLMISRTPEVTCVVVDVKHEDPEVKFNWYVDGVEVHNAKTKPREEEYNSTYRVVSVLTVLHQDWLNGKEYKCKVSNKALPAPIEKTISKAKGQPREPQVYTLPPSREEMTKNQVSLTCDVSGFYPSDIAVEWESDGQPENNYKTTPPVLDSDGSFFLYSKLTVDKSRWEQGDVFSCSVMHEALHNHYTQKSLSLSPGK Fab-scFv-Fc: QVQLVQSGAEVKKPGASVKVSCKASGYTFTSYWMHWVRQAPGQGLEWMGWIHPNSDNTIYYEKFQGRVTMTVDKSISTAYMELSRLRSDDTAVYYCAIIITPVVPKFDYWGQGTLVTVSSASTKGPSVFPLAPSSKSTSGGTAALGCLVKDYFPEPVTVSWNSGALTSGVHTFPAVLQSSGLYSLSSVVTVPSSSLGTQTYICNVNHKPSNTKVDKKVEPKSCGGGGSGGGGSQAVVTQEPSLTVSPGGTVTLTCGSSTGAVTTSNYANWVQQKPGKSPRGLIGGTNKRAPGVPARFSGSLLGGKAALTISGAQPEDEADYYCALWYSNHWVFGGGTKLTVLGKPGSGKPGSGKPGSGKPGSEVQLVESGGGLVQPGGSLRLSCAASGFTFSTYAMNWVRQAPGKGLEWVGRIRSKANNYATYYADSVKGRFTISRDDSKNTLYLQMNSLRAEDTAVYYCVRHGNFGDSYVSWFAYWGQGTLVTVSSGGGGSGGGGSKTHTCPPCPAPPVAGPSVFLFPPKPKDTLMISRTPEVTCVVVDVKHEDPEVKFNWYVDGVEVHNAKTKPREEQYNSTYRVVSVLTVLHQDWLNGKEYKCKVSNKALPAPIEKTISKAKGQPREPQVYTLPPSREQMTKNQVKLTCLVKGFYPSDIAVEWESNGQPENNYKTTPPVLDSDGSFFLYSKLTVDKSRWQQGNVFSCSVMHEALHNHYTQKSLSLSPGK light: DIVMTQSPDSLAVSLGERATINCKASHDVGQSVAWYQQKPGQSPKLLIYWASTRHTGVPDRFTGSGSGTDFTLTISSLQAEDVAVYFCQQYSSYPLTFGAGTKLEIKRTVAAPSVFIFPPSDEQLKSGTASVVCLLNNFYPREAKVQWKVDNALQSGNSQESVTEQDSKDSTYSLSSTLTLSKADYEKHKVYACEVTHQGLSSPVTKSFNRGEC",,,,,,,,,,,90.4
"XENP33367 (bispecific antibody, 2+1 Fab2-scFv-Fc) heavy: QVQLVQSGAEVKKPGASVKVSCKASGYTFTSYWMHWVRQAPGQGLEWMGWIHPNSDNTIYYEKFQGRVTMTVDKSISTAYMELSRLRSDDTAVYYCAIIITPVVPKFDYWGQGTLVTVSSASTKGPSVFPLAPSSKSTSGGTAALGCLVKDYFPEPVTVSWNSGALTSGVHTFPAVLQSSGLYSLSSVVTVPSSSLGTQTYICNVNHKPSDTKVDKKVEPKSCDKTHTCPPCPAPPVAGPSVFLFPPKPKDTLMISRTPEVTCVVVDVKHEDPEVKFNWYVDGVEVHNAKTKPREEEYNSTYRVVSVLTVLHQDWLNGKEYKCKVSNKALPAPIEKTISKAKGQPREPQVYTLPPSREEMTKNQVSLTCDVSGFYPSDIAVEWESDGQPENNYKTTPPVLDSDGSFFLYSKLTVDKSRWEQGDVFSCSVMHEALHNHYTQKSLSLSPGK Fab-scFv-Fc: QVQLVQSGAEVKKPGASVKVSCKASGYTFTSYWMHWVRQAPGQGLEWMGWIHPNSDNTIYYEKFQGRVTMTVDKSISTAYMELSRLRSDDTAVYYCAIIITPVVPKFDYWGQGTLVTVSSASTKGPSVFPLAPSSKSTSGGTAALGCLVKDYFPEPVTVSWNSGALTSGVHTFPAVLQSSGLYSLSSVVTVPSSSLGTQTYICNVNHKPSNTKVDKKVEPKSCGGGGSGGGGSQAVVTQEPSLTVSPGGTVTLTCGSSTGAVTTSNYANWVQQKPGKSPRGLIGGTNKRAPGVPARFSGSLLGGKAALTISGAQPEDEADYYCALWYSNHWVFGGGTKLTVLGKPGSGKPGSGKPGSGKPGSEVQLVESGGGLVQPGGSLRLSCAASGFTFSTYAMNWVRQAPGKGLEWVGRIRSKANNYATYYADSVKGRFTISRDDSKNTLYLQMNSLRAEDTAVYYCVRHGNFGDSYVSWFAYWGQGTLVTVSSGGGGSGGGGSKTHTCPPCPAPPVAGPSVFLFPPKPKDTLMISRTPEVTCVVVDVKHEDPEVKFNWYVDGVEVHNAKTKPREEQYNSTYRVVSVLTVLHQDWLNGKEYKCKVSNKALPAPIEKTISKAKGQPREPQVYTLPPSREQMTKNQVKLTCLVKGFYPSDIAVEWESNGQPENNYKTTPPVLDSDGSFFLYSKLTVDKSRWQQGNVFSCSVMHEALHNHYTQKSLSLSPGK light: DIVMTQSPDSLAVSLGERATINCKASHDVGTSVAWYQQKPGQSPKLLIYWASTRHTGVPDRFTGSGSGTDFTLTISSLQAEDVAVYFCQQYSSFPLTFGAGTKLEIKRTVAAPSVFIFPPSDEQLKSGTASVVCLLNNFYPREAKVQWKVDNALQSGNSQESVTEQDSKDSTYSLSSTLTLSKADYEKHKVYACEVTHQGLSSPVTKSFNRGEC",,,,,,,,,,,246
"XENP32567 (bispecific antibody, 1+1 Fab-scFv-Fc) heavy: QVQLVQSGAEVKKPGASVKVSCKASGYTFTSYWMHWVRQAPGQGLEWMGMIHPNSDNTIYYEKFQGRVTMTVDKSISTAYMELSRLRSDDTAVYYCAIIITPVVPKFDYWGQGTLVTVSSASTKGPSVFPLAPSSKSTSGGTAALGCLVKDYFPEPVTVSWNSGALTSGVHTFPAVLQSSGLYSLSSVVTVPSSSLGTQTYICNVNHKPSDTKVDKKVEPKSCDKTHTCPPCPAPPVAGPSVFLFPPKPKDTLMISRTPEVTCVVVDVKHEDPEVKFNWYVDGVEVHNAKTKPREEEYNSTYRVVSVLTVLHQDWLNGKEYKCKVSNKALPAPIEKTISKAKGQPREPQVYTLPPSREEMTKNQVSLTCDVSGFYPSDIAVEWESDGQPENNYKTTPPVLDSDGSFFLYSKLTVDKSRWEQGDVFSCSVMHEALHNHYTQKSLSLSPGK scFv-Fc: not shown light: DIVMTQSPDSLAVSLGERATINCKASHDVGTSVAWYQQKPGQSPKLLIYWASTRHTGVPDRFTGSGSGTDFTLTISSLQAEDVAVYFCQQYYSYPLTFGAGTKLEIKRTVAAPSVFIFPPSDEQLKSGTASVVCLLNNFYPREAKVQWKVDNALQSGNSQESVTEQDSKDSTYSLSSTLTLSKADYEKHKVYACEVTHQGLSSPVTKSFNRGEC",3.9,21.5,0.822,0.013,608000,15.3,0.953,0.00887,578000,6.7,
